In the RNAGym collection of RNA variant scans (doi:10.1073/pnas.2313332121):

B1: TPR t1 (parent)
chain: GACCAAUCUGCCCUCAGAGCUCGAGAACAUCUUCGGAUGCAGAGGAGGCAGGCUUCGGUGGCGCGAUAGCGCCAACGUCCUCAACCUCCAAUGCAUCCCACCACAUGAUGAUGCCUGAAGAGCCUUGGUUUUUUG

Variants of: B1
Test: polymerase ribozyme fitness, log enrichment relative to wild type (log ratio); higher = more active; in vitro selection for triplet polymerase activity
Method in brief: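 Each subunit of a heterodimeric triplet polymerase ribozyme was mutagenized into a library by PCR, transcribed, and subjected to one round of in vitro selection, run in triplicate. Libraries were annealed with a biotinylated primer, the partner subunit and triplets, incubated frozen at −7 °C, and extended constructs were gel-excised, captured on streptavidin beads and recovered by RT-PCR. Input and output libraries were sequenced on Illumina, keeping genotypes with ≥10 input reads and ≥1 read per output. Fitness is log base 2 of genotype enrichment divided by wild-type enrichment, from inverse-variance-weighted replicate averages.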

| Variant | polymerase ribozyme fitness (log ratio) |
| --- | --- |
| G10C C62U | -0.917 |
| A26G U129C | -2.73 |
| C20U U32C G71A U112C | -1.25 |
| A105U G117A | -4.52 |
| G45U C114G | -3.8 |
| C13U U14C G48U | -3.25 |
| A26U G44A G48U C82U G122A | -6.34 |
| A5G G60C | 0.0339 |
| A29U U32C G61C C70G C98A C114U | -5.96 |
| C86U C114A | -1.71 |
| A111C A119U U131C | 0.0159 |
| G60U G61A U106C G128A U130A | -4.75 |
| G61C C89U | -1.58 |
| A29G C86A U112A C123G | 0.207 |
| G39A C70G U112G | -4.63 |
| C28U U87A | -2.17 |
| C3G U9A C85A | -2.07 |
| G19U A74G | -3.02 |
| C20A C53U | -2.46 |
| G47A A84C A121C | 0.928 |
| C8A G57U A66G C76U A90U | -4.82 |

| Variant | polymerase ribozyme fitness (log ratio) |
| --- | --- |
| C8G C49A U92A C123U | -1.03 |
| A6C C13A C88A | -3.16 |
| C11A G93C | -1.54 |
| C11A C13G G36U C73A | -4.01 |
| C79A C115A | -2.1 |
| A18U C79A | -4.95 |
| C4U U9A C82A | 0.0858 |
| A29U A46C G117C | -4.13 |
| G39A C64U C98G A103C A111G | -7.64 |
| U14C G61U A75C A105C | -3.69 |
| C115G U125A | -1.66 |
| G122A C123G | 1.74 |
| U14C A18G | -4.78 |
| C11G C15G G63C A68U C80U C115G G127C G135C | -5.08 |
| C8U C64A C115U | -6.79 |
| C3U U9C C49A C70U C76A C115A | -0.878 |
| C8G G44C G60A | 0.198 |
| C11G C62A | -0.516 |
| C70U C79A | -2.03 |
| C82A C115A | -1.19 |
| G44U C124A | 1.15 |

| Variant | polymerase ribozyme fitness (log ratio) |
| --- | --- |
| G52U C99U U132C | -4.08 |
| C8U G48A C72U | 0.0222 |
| U7C G42C C88U C115U U133A | -0.576 |
| G44A C56U C72U | -2.35 |
| G17A G19U U55A C82A C114A | -3.12 |
| U21A A43C C73G U78C | -3.93 |
| G117U C124A | -0.212 |
| G61A C79A C114A | -3.21 |
| G19U U87G G110C U112G | -6.7 |
| G19U A119G G128A | -3.71 |
| A26U U96A C114U G117A | -5.98 |
| A26U G61U U112C | -2.62 |
| A41U U133G | -1.49 |
| G19C G42U U92A | -2.69 |
| C8A C22U G57C A75U C97U C102G | -6.66 |
| C12A C22U U78C A121U | -2.5 |
| C20U G57A U78C | -3.25 |
| G60A C64A C80U C97A C115A U125A U126G | -7.2 |
| G35A G120C | -2.79 |
| G48C U92A C104U | -3.44 |
| A29C G36U G69C G77A C97U A105U U106A | -5.4 |

| Variant | polymerase ribozyme fitness (log ratio) |
| --- | --- |
| A68G U112C | -0.794 |
| G113U C124A | -1.53 |
| G61C G65A | -4.9 |
| C28U G71A G77A C114A | -6.98 |
| C56G G127A G128A | -3.93 |
| C11U A43G | -2.11 |
| C15G C34A C70G A121C | -6.55 |
| U54C C56U U133G | 0.0417 |
| A37U G51C C79G A118G | -3.37 |
| C22G C72A C88U | -2.7 |
| C89A G120C | -0.369 |
| A29G A91G G113A | -2.3 |
| C79U C88U | -0.115 |
| G63A U96G U112A | -1.56 |
| A16U G48C G120A | -1.64 |
| C64U A75U U116G G122A C124G | 0.737 |
| C49A G77A C82A U92C G113U C114U | -2.49 |
| U7G G39A G58A G69U C97U | 0.0234 |
| U92G C101U A103U U109A | -6.74 |
| G61A A91C C123U | 0.543 |
| U7A C11A C101U G122U | 0.139 |
